According to patent US20060253917A1 (published 2006):

How the values were obtained:
OsFDRMADS6 aa 74-246 = molecular target: T1, OsFDRMADS6 aa 74-246 (Oryza sativa, UniProt P0C5B1 74-246); assay: Y2H; output trait library
T1 construct: prey, AD fusion; also called PN19766
T1 sequence: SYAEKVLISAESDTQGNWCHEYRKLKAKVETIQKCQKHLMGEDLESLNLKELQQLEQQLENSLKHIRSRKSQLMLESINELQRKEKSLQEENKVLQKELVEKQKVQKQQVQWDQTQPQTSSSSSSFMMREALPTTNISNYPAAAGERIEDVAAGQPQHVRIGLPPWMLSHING
Method in brief: (§1)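 Protein-protein interactions were detected with an automated, high-throughput yeast two-hybrid assay provided by Myriad Genetics Inc. (Salt Lake City, Utah). A bait clone encoding a defined amino-acid fragment of a rice protein was screened against a rice prey library, either the input trait or the output trait library. Prey clones were retrieved, and their encoding sequences were compared by BLAST against databases to identify the interacting proteins.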

OsMADS17 aa 51-248 = molecular target: T2, OsMADS17 aa 51-248 (Oryza sativa, UniProt Q7XUN2 51-248); assay: Y2H; output trait library
T2 construct: prey, AD fusion; also called PN20914
T2 sequence: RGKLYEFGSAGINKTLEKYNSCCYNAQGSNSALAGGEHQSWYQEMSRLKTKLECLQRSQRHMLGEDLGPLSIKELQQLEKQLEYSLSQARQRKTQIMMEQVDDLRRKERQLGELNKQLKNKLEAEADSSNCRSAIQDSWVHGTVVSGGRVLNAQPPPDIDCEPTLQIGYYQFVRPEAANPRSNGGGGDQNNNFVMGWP
Method in brief: as §1

OsMADS1 aa 95-254 = molecular target: T3, OsMADS1 aa 95-254 (Oryza sativa, UniProt A2XDY1 95-254); assay: Y2H; input trait library
T3 construct: prey, AD fusion; also called PN19788
T3 sequence: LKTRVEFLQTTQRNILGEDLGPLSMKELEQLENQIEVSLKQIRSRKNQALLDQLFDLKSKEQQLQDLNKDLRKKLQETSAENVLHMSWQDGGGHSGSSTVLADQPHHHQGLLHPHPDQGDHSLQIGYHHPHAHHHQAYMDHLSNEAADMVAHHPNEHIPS
Method in brief: as §1

OsMADS1 aa 74-172 = molecular target: T4, OsMADS1 aa 74-172 (Oryza sativa, UniProt A2XDY1 74-172); assay: Y2H; input trait library
T4 construct: prey, AD fusion; also called PN19788
T4 sequence: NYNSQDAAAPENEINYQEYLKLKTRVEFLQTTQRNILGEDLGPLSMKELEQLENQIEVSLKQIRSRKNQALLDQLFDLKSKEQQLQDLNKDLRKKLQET
Method in brief: as §1

OsMADS45 aa 120-249 = molecular target: T5, OsMADS45 aa 120-249 (Oryza sativa, UniProt P0C5B0 120-249); assay: Y2H; output trait library
T5 construct: prey, AD fusion; also called PN20231
T5 sequence: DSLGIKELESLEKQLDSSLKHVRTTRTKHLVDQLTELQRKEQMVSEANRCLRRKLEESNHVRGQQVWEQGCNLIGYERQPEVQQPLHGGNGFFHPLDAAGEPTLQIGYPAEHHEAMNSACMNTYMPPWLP
Method in brief: as §1

OsMADS3 aa 70-170 = molecular target: T6, OsMADS3 aa 70-170 (Oryza sativa, UniProt Q40704 70-170); assay: Y2H; input trait library
T6 construct: bait, Gal4 DBD fusion; also called PN20700
T6 sequence: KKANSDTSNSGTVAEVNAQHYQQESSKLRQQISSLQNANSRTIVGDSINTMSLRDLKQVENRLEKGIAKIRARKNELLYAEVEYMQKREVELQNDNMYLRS
Method in brief: as §1

B1: OsMADS5 aa 50-160 (other)
chain: TRGRLFEFSTSSCMYKTLERYRSCNYNLNSCEASAALETELSNYQEYLKLKTRVEFLQTTQRNLLGEDLVPLSLKELEQLENQIEISLMNIRSSKNQQLLDQVFELKRKEQ
notes: bait, Gal4 DBD fusion; also called PN20770
**Q.** What does the source list for B1?
**A.** binding result (OsFDRMADS6 aa 74-246): binds; binding result (OsMADS17 aa 51-248): binds

B2: OsMADS15 aa 100-235 (other)
chain: AKIETIQKCHKHLMGEDHESLNLKELQQLEQQLESSLKHIISRKSHLMLESISELQKKERSLQEENKALQKELVERQKNVRGQQQVGQWDQTQVQAQAQAQPQAQTSSSSSSMLRDQQALLPPQNICYPPVMMGER
notes: bait, Gal4 DBD fusion; also called PN20842
**Q.** Does B2 bind (OsMADS1 aa 95-254)?
**A.** binds

**Q.** Does B2 bind (OsMADS1 aa 74-172)?
**A.** binds

**Q.** Does B2 bind (OsMADS45 aa 120-249)?
**A.** binds

B3: OsPN31165 aa 58-252 (other)
chain: YAREMERLSAKESLLLAFRDAGGFESLVSGKTTGMQKIDVNERIVGLERLNPTPRPTTSPFLEGRWNFEWFGDSSPGALAARLLFERSPTTVAHFTGLDVLIKDGYSKISSNVKFLNTVQSKFLLTTQLSVEGPIRMKEEYVEGLIEIPRIREETLPDQLKGFFGQTAGALQQLPAPIRDAVSEGIKLPLNGMFQ
notes: prey, AD fusion; also called Novel protein PN31165
**Q.** Does B3 bind (OsMADS3 aa 70-170)?
**A.** binds
